Patent US20220293215A1

Target: I-A^b (MHCII) of murine bone marrow-derived dendritic cells from C57BL/6J mice (mouse) (UniProt P14434)
Test: MHCII peptidomics: Y3P IP of peptide-MHCII from BMDCs exposed to live Listeria, iTRAQ LC-MS/MS
Conditions: scale: log2 fold change, Listeria 6 hr versus 10 min

In the case of “Listeria peptide mNRVmLPLQQmGAKMHGK (lmo1923 (aroE))”, the logFC is reported as 0.145.
